# Assay results from the supplement of paper PMC12042874.
# ± gives the uncertainty stated by the source.
# Assay: amyloid nucleation score (Sup35N fusion, yeast selection) (log enrichment); library NNK2; higher = more nucleation; inactive = no reads after selection
# Outline: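 Libraries of peptides of 20 random codons fused to Sup35N were expressed in psi-negative yeast and induced 24 hours with 100 μM copper sulfate. Selection was 7 days at 30°C on medium lacking adenine and uracil, and plasmid inserts were Illumina-sequenced before and after selection. Nucleation score is the DiMSum log enrichment of output over input reads, centred on the mode score of non-aggregating sequences, and sequences with under 100 input reads were left out.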
row,Substance,amyloid nucleation score
1,YIESIAECQSVRVGSIVDCF,-1.33 ± 0.75
2,RTRLS,0.559 ± 0.21
3,NVVGRYKSSDSLTYARWGWR,-0.064 ± 0.34
4,MEAIVERIGYITYVLNFKER,inactive
5,EICLHLQAYAIKQCGLLGTP,0.407 ± 0.26
6,IAVAKYLTLKDVVLNSWNSY,7.624 ± 0.036
7,WYTPRLRMLHLAEKGVRVVV,4.31 ± 0.089
8,IQVASRRIIM,0.063 ± 0.21
9,CYMVRGYSFSNRWTAHGHEM,2.51 ± 0.21
10,SLIVAIRFTA,2.5 ± 0.24
11,TYCKFVNFYESVKER,6.753 ± 0.037
12,VMCFVDRDRFCNLFKLCLEF,-1.45 ± 0.49
13,YINKKLGEAKGRDLLVRLGQ,3.63 ± 0.07
14,SYFMRDSTN,inactive
15,DYLSIFDYHDMMGQNFL,-0.151 ± 0.49
16,STVFYMNLQGVFRTVSWV,2.8 ± 0.18
17,YTIAECQSCPQNFLFFH,5.96 ± 0.063
18,TASFK,-0.014 ± 0.76
19,EYQLDHVY,-0.711 ± 1.1
20,LYQFSFFGYSYL,2.39 ± 0.069
21,SGLIY,inactive
22,LAAKFCCQLSFGSFCDCIFR,7.82 ± 0.084
23,RVTHRQDCMNVLGSRDYFER,-0.574 ± 0.39
24,LDLDMRGKHFVFHHTVKHAI,1.79 ± 0.14
25,LAQSYVSYS,-1.45 ± 0.54

row,Substance,amyloid nucleation score
1,IRWNDSYKKECHIFFWRNRE,inactive
2,RAEVNA,0.517 ± 0.26
3,RGLRDLMCLRPLRLASSQPP,inactive
4,FRRYYLLFVPAFCVPLKCQY,0.53 ± 0.66
5,CNSDGWCRIGSAVLPVRSID,-0.441 ± 0.35
6,QSVGATNLLG,0.501 ± 0.34
7,NTEEDDKRVRMGELVVEYSN,1.36 ± 0.17
8,ECLTG,-1.04 ± 0.44
9,VIMGFFGITFGWCKRSEVHE,2.49 ± 0.11
10,AHKLCSFSVSKHHFWRLNGK,-0.023 ± 0.62
11,DNSIRTLEILKSGNIVRGPR,inactive
12,FSTQGTFVSVHGVADLAVCF,inactive
13,ATYPVSATGSGELWVDRGQE,0.603 ± 0.38
14,KHRRYFFCVGSIRWASVYKT,inactive
15,KTIPSGVVGWVSEGQRSTNR,7.87 ± 0.08
16,RLDSMMVAYNAT,0.724 ± 0.81
17,SIELNLPMFSIRVKMCSRGE,2.53 ± 0.15
18,FTFDMVSSKSQYMNIDRNVR,-0.996 ± 0.78
19,WRVLFQDFRCKINYLGSSSR,inactive
20,LQVIHGSPRLRLYDYQRNNF,7.482 ± 0.04
21,LMSIVVKVVDSTIIIKCVFS,-0.667 ± 0.76
22,VKFNDFTHKNWY,0.058 ± 0.74
23,MDCRLV,0.216 ± 0.51
24,PSHSRMRIMNSTYSSFLLKV,0.214 ± 0.18
25,YWFFNWEWSGLVVYVGRFSA,inactive

row,Substance,amyloid nucleation score
1,HTSVFFRKKPGSCISRSLSL,inactive
2,LVCNPYMRDTARSESLGSAW,0.923 ± 0.66
3,FNDRKYESCDSDDC,-1.99 ± 0.62
4,VIIFFFVFRCMPDLIQVYCV,-1.72 ± 1
5,GLKTMLY,-0.227 ± 0.27
6,NRDVVKKLPGPSSFVMT,-0.552 ± 0.44
7,YMYLVVCLIVSHDPVSVVEW,inactive
8,RMRLSYWHCISLGLVLLRPI,0.298 ± 0.39
9,FSTRGSAMLRVAGLSGPRAS,0.29 ± 0.43
10,RECFLNPWSVYVRFS,-0.086 ± 0.44
11,SYDDVVILDFYDGIL,inactive
12,LDFVQCILAVIQGSRDAAGA,0.438 ± 0.64
13,FSMLRVYHLRPDLRVFCCAF,-0.108 ± 1.1
14,YIVYCLFDLLTPNKMWLSPQ,-0.661 ± 0.76
15,ARHMHSASYNYTGTRSYSFY,5.56 ± 0.091
16,WCNALFDWMLVAVCGGYYVY,-0.502 ± 0.37
17,RFWDQACQAFMSSMVEGPVD,-0.548 ± 1.1
18,ARTRLALWGLQRRGSPVFDN,0.157 ± 0.63
19,CVLGAVYLHRLTDGCDVKFT,0.762 ± 0.81
20,RVSSYSQATKKLKHERFGDV,-0.533 ± 0.44
21,GINCRGAIR,-0.345 ± 0.26
22,TFIAMSQALMTVYIGALLQW,3.57 ± 0.061
23,FLMSTSLRSCICCVLLPSDN,8.908 ± 0.032
24,NIKSYVGYRNHFRVSLV,inactive
25,RLLRLDQKQIMVRSSSAVLR,-0.107 ± 0.32

row,Substance,amyloid nucleation score
1,AFQWYLM,-0.693 ± 0.18
2,EDHSGF,-1.15 ± 0.28
3,LRMMYRFGVCYVLL,0.399 ± 0.31
4,RFYVGTIFSPYILLSSTECM,3.82 ± 0.06
5,RVGIH,1.52 ± 0.22
6,ALGENAPILDRWLIGSLVFL,1.77 ± 0.39
7,VTRSVSPHSSPYAFYYFNIS,inactive
8,QLVYCVNFVFFARVTNRSAR,3.95 ± 0.06
9,VDFFCQPGTCVQEVEDLLVL,-0.166 ± 0.35
10,LYVGYSDMPVWSPASVCISI,0.001 ± 0.65
11,SLLKNPASMCSNSIFCAYVG,8.708 ± 0.069
12,RFWPWLLVRPNFPMLSQ,0.216 ± 0.37
13,MYVFMVSFYMGFCKYQNSVI,inactive
14,ESLMKSYVLSAYMCGPIGGR,1.03 ± 0.37
15,SFYRCGLNYCNGTS,5.94 ± 0.06
16,LKATQLYGFYMTEKCVDSSW,-0.549 ± 1
17,SPLVLGFSRK,-1.02 ± 0.76
18,GSAHTCSTS,0.077 ± 0.3
19,SSSKRNSKDPSGLGLVCVE,0.795 ± 0.46
20,FIARDRLMTDRTRGKPSWEG,0.231 ± 0.3
21,VIGRCDSL,inactive
22,EESYLSHGL,1.22 ± 0.61
23,MLFSTATYSSGRRFDFVEIA,0.422 ± 0.65
24,SYILEFFHWIRSRLEYYGY,-1.5 ± 0.76
25,LTRCPYGSCLNWERWVGYMM,1.93 ± 0.1

row,Substance,amyloid nucleation score
1,SPLEKATRFPTWEQCTVASM,0.405 ± 0.23
2,GCLPHGY,0.663 ± 0.62
3,VGHQVDCHTSVRYYILYAFF,7.839 ± 0.063
4,EGYAGVVQMALFYSWANIRL,0.194 ± 0.62
5,NKVSEFYDGVHFC,-0.235 ± 1.1
6,MLYYTCTQQHTDFLRCF,-0.391 ± 0.32
7,SRNLGGNYGLGGWCNEEFRR,0.185 ± 0.65
8,SIKNHRDREILAMPGVSRSA,inactive
9,VICVLSYADCSKLGWGHSLT,8.868 ± 0.043
10,HFYCMV,4.51 ± 0.11
11,RFFCYKSYMLLECLRIVSVC,-0.853 ± 0.78
12,AYSFDKHKNKGLSTASVGHM,0.894 ± 0.55
13,IWLLHQCSLATLGFC,-1.25 ± 0.62
14,LYTKRSKY,-0.161 ± 1.1
15,FGYAVVQRYYKWWIAMNTQA,-0.04 ± 0.42
16,EKAGGPWLDHNRRQCQCEVA,0.634 ± 0.45
17,THNLAEGQGKDCVQSLDRMG,0.22 ± 0.38
18,VRLLMKLYNVPWVFH,inactive
19,LCQIANNSVGLRKDQEGLR,0.375 ± 0.41
20,SFAMSRHLQPGGNEQFRM,1.16 ± 0.57
21,CLSLFTSYV,0.415 ± 0.31
22,TVWYCALSL,10.61 ± 0.07
23,YLCYNALNDFD,-0.445 ± 0.41
24,YLIDFRTRWIRISKA,-0.695 ± 0.61
25,FDTGSRYFFNELRGGNCHCW,1.26 ± 0.21

row,Substance,amyloid nucleation score
1,TIRRVRSALQQHM,0.041 ± 0.49
2,NSSSYVDFGTICMDSIWMS,0.041 ± 0.53
3,NLRMVG,0.182 ± 1.1
4,NMFRIVASTY,0.598 ± 0.47
5,NTLDSGPNGGWLISTY,inactive
6,SVFKMNEGFGNEHSNAPMRG,inactive
7,NRFMN,-0.3 ± 0.46
8,YDSLYWCGSWYLGLSWISLR,-0.953 ± 0.62
9,ATDVCKKLWFALLVSVLVSS,0.642 ± 0.48
10,HYCRHLLVLHSSKYARSHSS,-0.338 ± 0.37
11,GVQYRSGESGDSASYWRLGG,0.628 ± 0.38
12,SADDL,0.972 ± 0.39
13,DCLGVSFNDFQFLLVSAITR,inactive
14,VRKSHS,0.308 ± 0.42
15,YFELNLNVKRRGGKWYYSLI,1.16 ± 0.27
16,LVDLWSRRGCKKLVRYVESL,0.818 ± 0.53
17,GVRYSFSTTRKFTELSFNIC,3 ± 0.16
18,VRITVSSSLALWLVWLSHYR,-0.167 ± 0.27
19,THSRRLRLNAKMCLHFLWYR,-0.115 ± 0.2
20,YYVHQTHVSCLLAVLCPSLK,8.901 ± 0.039
21,ANLRNSW,-0.82 ± 0.56
22,LMKNEFSRYHTSCVVRGNSL,0.334 ± 0.28
23,VKTRVQPRTGDLSATLLGLE,0.828 ± 0.48
24,CDRFYSSLVNSVGYCLLNAY,1.47 ± 0.21
25,FRRRRIFYYITEHVLLCMLK,-0.5 ± 0.64

row,Substance,amyloid nucleation score
1,WNAHN,-0.081 ± 1.1
2,YNVDVFWYGLKFNDLVVVHF,3.73 ± 0.13
3,YVLRQEVCIIPINSMFVNSF,6.091 ± 0.045
4,PPRYARFKSDLHSLHAVFGN,5.57 ± 0.061
5,GGYGLICCYQMLEDSTKDMM,-0.603 ± 1.1
6,GTMDITYTY,2.44 ± 0.11
7,KSINNC,0.181 ± 0.26
8,WNYSNRNDYELFRTLK,0.316 ± 0.57
9,VVAMDRCLQPVFLHLLSNNF,inactive
10,YVYEIDYSRFQFCARWVGWA,0.597 ± 0.48
11,MYVDLWFGTYRNS,0.532 ± 0.54
12,GVMRIHCGDREC,0.8 ± 0.54
13,LVIRAKYYNPRTWGKFLHPV,-0.381 ± 0.28
14,SYNTHQLSRSPF,-0.131 ± 0.23
15,QGSNCLHYRLSIIS,-1.05 ± 1.1
16,MRCKRYECSGDSWWGYSFAK,0.131 ± 0.27
17,WDHLFASFFFLPLMLYGRYY,inactive
18,VYFDNGISK,-1.6 ± 1.1
19,TFDRCPNNSGNDMTNGPESW,1.21 ± 0.096
20,AMGMRTSYCGC,inactive
21,RVDCPYSGNVLTRVGNRCWA,0.729 ± 0.25
